Assay [1] has as its target rat DLL3 expressed on CHO cells (rat) (UniProt O88671). The assay can be described thus: flow cytometry, 10 ug/ml AMG 757 on Low CHO rtDLL3 cells, anti-human IgG Fc-APC. On the technique in general: Flow cytometry measures light scatter and fluorescence of single cells or particles in a stream.
Assay [2] addresses mouse DLL3 expressed on CHO cells (mouse) (UniProt O88516). As to the kind of experiment: flow cytometry, 10 ug/ml AMG 757 on CHO muDLL3 cells, anti-human IgG Fc-APC.
Assay [3] has as its target human FLT3 expressed on CHO cells (human) (UniProt P36888). As to the kind of experiment: flow cytometry, 10 ug/ml AMG 757 on CHO huFTL3 (negative control) cells, anti-human IgG Fc-APC.
Assay [4] has as its target rat DLL3 expressed on CHO cells (rat) (UniProt O88671). The assay can be described thus: flow cytometry, 10 ug/ml AMG 757 on High CHO rtDLL3 cells, anti-human IgG Fc-APC.
Assay [5] addresses cynomolgus monkey DLL3 expressed on CHO cells (cynomolgus monkey). The assay can be described thus: flow cytometry, 10 ug/ml AMG 757 on CHO cynoDLL3 cells, anti-human IgG Fc-APC.
Assay [6] has as its target human DLL3 expressed on the surface of cells (human) (UniProt Q9NYJ7). The assay can be described thus: flow cytometry, 10 ug/ml AMG 757 on CHO huDLL3 cells, anti-human IgG Fc-APC.

Chain of rat DLL3 expressed on CHO cells (rat) (O88671 33-589): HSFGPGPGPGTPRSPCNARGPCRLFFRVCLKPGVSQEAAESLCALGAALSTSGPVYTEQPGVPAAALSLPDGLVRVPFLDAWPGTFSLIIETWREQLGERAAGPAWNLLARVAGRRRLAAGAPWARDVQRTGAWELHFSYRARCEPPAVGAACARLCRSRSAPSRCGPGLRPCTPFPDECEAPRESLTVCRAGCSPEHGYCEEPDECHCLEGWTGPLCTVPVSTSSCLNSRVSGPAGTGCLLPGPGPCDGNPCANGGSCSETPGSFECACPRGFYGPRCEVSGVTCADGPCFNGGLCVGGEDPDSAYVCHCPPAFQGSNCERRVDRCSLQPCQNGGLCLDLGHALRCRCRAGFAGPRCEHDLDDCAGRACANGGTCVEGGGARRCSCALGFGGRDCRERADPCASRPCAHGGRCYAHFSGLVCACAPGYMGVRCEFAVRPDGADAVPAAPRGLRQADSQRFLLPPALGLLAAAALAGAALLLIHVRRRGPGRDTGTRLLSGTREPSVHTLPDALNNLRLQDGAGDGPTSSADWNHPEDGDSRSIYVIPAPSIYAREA
Chain of human DLL3 expressed on the surface of cells (human) (Q9NYJ7 27-618 limits assumed): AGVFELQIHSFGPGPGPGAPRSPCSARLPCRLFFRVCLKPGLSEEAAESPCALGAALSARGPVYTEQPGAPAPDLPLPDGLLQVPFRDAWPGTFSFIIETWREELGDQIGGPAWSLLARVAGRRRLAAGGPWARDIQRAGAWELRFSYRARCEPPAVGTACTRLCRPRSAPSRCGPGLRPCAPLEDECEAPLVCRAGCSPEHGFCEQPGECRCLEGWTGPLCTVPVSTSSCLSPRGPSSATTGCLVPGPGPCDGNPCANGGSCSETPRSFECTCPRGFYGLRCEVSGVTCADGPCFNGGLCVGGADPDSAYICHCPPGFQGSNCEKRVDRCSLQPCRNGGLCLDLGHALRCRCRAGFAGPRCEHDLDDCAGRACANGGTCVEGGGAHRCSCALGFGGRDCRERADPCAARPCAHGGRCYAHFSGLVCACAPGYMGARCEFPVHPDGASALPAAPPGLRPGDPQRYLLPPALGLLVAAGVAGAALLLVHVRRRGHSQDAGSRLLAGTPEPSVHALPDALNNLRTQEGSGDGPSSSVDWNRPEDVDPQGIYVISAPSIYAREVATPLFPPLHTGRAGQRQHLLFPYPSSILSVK
Chain of mouse DLL3 expressed on CHO cells (mouse) (O88516 33-592): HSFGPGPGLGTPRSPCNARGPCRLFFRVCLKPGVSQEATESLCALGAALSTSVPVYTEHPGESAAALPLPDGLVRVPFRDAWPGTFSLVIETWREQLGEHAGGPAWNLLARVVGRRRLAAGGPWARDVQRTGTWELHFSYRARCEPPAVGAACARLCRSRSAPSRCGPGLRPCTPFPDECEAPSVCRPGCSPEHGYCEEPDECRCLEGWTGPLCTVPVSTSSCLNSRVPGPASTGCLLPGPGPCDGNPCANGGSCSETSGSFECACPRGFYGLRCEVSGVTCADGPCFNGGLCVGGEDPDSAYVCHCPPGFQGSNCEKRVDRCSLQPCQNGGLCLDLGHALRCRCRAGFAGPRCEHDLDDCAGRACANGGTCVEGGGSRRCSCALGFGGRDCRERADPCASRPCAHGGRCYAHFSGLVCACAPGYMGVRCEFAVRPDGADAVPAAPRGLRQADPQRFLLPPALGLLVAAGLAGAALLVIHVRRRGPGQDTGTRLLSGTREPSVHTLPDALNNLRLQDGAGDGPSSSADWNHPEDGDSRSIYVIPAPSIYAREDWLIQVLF
Chain of cynomolgus monkey DLL3 expressed on CHO cells (cynomolgus monkey) (chain, as listed by the source, form in doubt): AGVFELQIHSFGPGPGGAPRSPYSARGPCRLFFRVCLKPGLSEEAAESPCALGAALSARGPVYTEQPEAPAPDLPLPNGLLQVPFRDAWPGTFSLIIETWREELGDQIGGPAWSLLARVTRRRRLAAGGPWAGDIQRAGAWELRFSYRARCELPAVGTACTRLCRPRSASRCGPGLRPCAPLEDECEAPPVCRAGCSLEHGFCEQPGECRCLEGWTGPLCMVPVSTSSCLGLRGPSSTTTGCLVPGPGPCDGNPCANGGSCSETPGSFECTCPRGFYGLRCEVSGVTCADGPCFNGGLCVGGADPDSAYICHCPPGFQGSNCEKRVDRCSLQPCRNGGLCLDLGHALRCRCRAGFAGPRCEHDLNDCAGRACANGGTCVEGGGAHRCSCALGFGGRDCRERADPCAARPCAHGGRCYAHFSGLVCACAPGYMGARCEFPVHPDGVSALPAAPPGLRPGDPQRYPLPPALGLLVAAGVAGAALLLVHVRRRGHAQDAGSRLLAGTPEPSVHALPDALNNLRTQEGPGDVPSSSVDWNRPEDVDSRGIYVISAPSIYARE

As for AMG 757 (bispecific antibody), the DLL3 positive cells (%) in assay [1] stood at 98.6%; in assay [2], 99.5%; in assay [3], 3.3%; in assay [4], 98.6%; in assay [5], 98.4%; in assay [6], 99.7%.

For the origin of these results see patent US20250074943A1, “DLL3 BINDING PEPTIDES AND USES THEREOF” (AMGEN INC., priority 2021, published 2025).
